Laboratory results from patent US6054572.

Biological target: human fibronectin purified from a human plasma fraction on Gelatin Sepharose (human) (UniProt P02751)

With “D1-D4 (709-886) polypeptide of the fibronectin binding protein of Staphylococcus aureus J2385, expressed from pBROC 520 in E. coli BL21 (DE3)” the % Adherence Inhibition of S. aureus 8325.4 to fibronectin-coated PMMA coverslips (at 100 µg/ml D1-D4 (709-886)) was 97.5% and the % Adherence Inhibition of S. aureus J2385 to fibronectin-coated PMMA coverslips (at 100 µg/ml D1-D4 (709-886)) was 78.4%.
